Target: T1, GST-BAK (human)
T1 chain: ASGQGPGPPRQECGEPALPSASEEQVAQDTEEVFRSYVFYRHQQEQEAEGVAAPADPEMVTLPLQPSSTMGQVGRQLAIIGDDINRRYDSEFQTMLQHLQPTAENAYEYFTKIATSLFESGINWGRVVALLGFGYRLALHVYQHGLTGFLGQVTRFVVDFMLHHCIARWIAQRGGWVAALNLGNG
Test: fluorescence polarisation; competitive: displacement of 10 nM BID BH3 SAHB-F from 1 µM GST-BAK by peptides at 500-0.2 µM; 50 mM Tris-HCl pH 7.5, 50 mM KCl, 0.1 mg/mL BSA, 2 mM DTT, 0.005% Tween-20; 60 min at RT
Conditions: both partners purified

Ac-EDWIRNIARHLAQVGDSMDRSI-NH2 [W(0') BID BH3 peptide]
IC50: 27.4 ± 16.4 µM

— article PMC8752837, “Structural basis of BAK activation in mitochondrial apoptosis initiation” (Nature Communications, 2022)
